The test system of series [1] is ABC2 mRNA. Kind of series: Quantitative RT-PCR of ABC2 transcripts after alkane treatment. The following applies: Y. lipolytica CLIB122, 24 h alkane treated vs. untreated, normalized to actin, p<0.05. The class given is cell-based. The source says:
FIG. 3. mRNA transcripts levels of ABC2 and ABC3 in Y. lipolytica. Quantitative RT-PCR analysis of ABC2 (A) and ABC3 (B) in Y. lipolytica cells corresponding to treatment with octane, nonane, decane, undecane and dodecane (C8-C12). Each value of qRT-PCR was normalized to β-actin expression levels and expressed as the fold change relative to the levels detected in control samples, which were cells without alkane treatment and set equal to 1. Error bars represent the SD of triplicate.
To assess whether ABC1, ABC2, ABC3 and ABC4 are involved in alkane transport in Y. lipolytica, we analysed the effects of alkanes with different chain length (C8-C12) on the transcription levels of these four ABC transporter genes using quantitative RT-PCR.
Total RNA samples from 24 h alkane treated and untreated Y. lipolytica CLIB122 cells were prepared using RNeasy Mini Kit (Qiagen), followed by cDNA synthesis using H minus Reverse transcriptase kit (Fermentas). Quantitative RT-PCR analysis was performed on a Bio-Rad iQ5 real-time PCR detection system using SsoFast EvaGreen Supermix kit (Bio-Rad). The actin gene (YALI0D08272g) was used as reference gene for Y. lipolytica. Relative mRNA levels were derived using comparative CT method.

Series [2] concerns S. cerevisiae BY4741. In words: Alkane susceptibility test in liquid culture. Format: cell-based, Saccharomyces cerevisiae. The protocol:
(§1) FIG. 2. Alkane susceptibility test for S. cerevisiae. The alkane susceptibility was tested in cells expressing ABC2/3 or with empty plasmid. (A) Alkane susceptibility test on agar plate. Serial dilutions of cells expressing ABC2/3 were spotted on agar plates with alkanes (decane, undecane) as vapour phase. Plates were incubated at 28° C. for 2 days. (B) Alkane susceptibility test in liquid culture. Overnight cell culture was diluted into induction medium (final OD600=0.4) with different alkanes (decane & undecane) concentrations. The plates were incubated for 48 hr at 28° C. The OD600 value of each sample was determined and plotted against its corresponding alkane concentration. Symbols for strains are: control sample with empty plasmid (open circle), cells expressing ABC2 (filled circle), cell expressing ABC3 (filled triangle).
Overnight culture was diluted into 5 ml induction medium in 50 ml glass bottle (Sigma) at an initial OD600 of 0.4. Alkanes were added as different final concentration. Bottles were sealed tightly with butyl rubber stopper (Sigma) and silver aluminum seal (Sigma). Liquid culture was performed at 28° C. with shaking. Growth was monitored by measuring the OD600 at different time point. Cell culture used for time point OD checking was collected from the glass bottle using needle and syringe.
To further analyze the effect of ABC2 and ABC3 toward decane and undecane, alkane susceptibility tests in liquid culture were conducted. […] With the expression of ABC2, decane tolerance was boosted about 80-fold (20% vs. 0.25% decane) and cells can survive in 20% undecane. For ABC3, decane tolerance is increased slightly by about 3-fold (0.75% vs. 0.25% decane) and cells are resistant to 20% undecane. It is apparent that the expression of ABC2 and ABC3 transporters improved the tolerance toward C10 and C11 alkanes.

Series [3] deals with S. cerevisiae BY4741. Kind of series: Alkane susceptibility test on agar plate. The class given is cell-based, Saccharomyces cerevisiae. The settings on record: cells expressing the transporter, 28° C., 2 days. On the procedure: as §1
Alkane susceptibility test on plates was performed according to the methods of Mauersberger et al.. Exponentially growing cells in induction medium were centrifuged and re-suspended with induction medium at OD600=1. Ten microliter aliquots of successive 10-fold dilutions (non diluted, 10-1, 10-2, 10-3) of cells were spotted onto the induction medium plate. Medium chain alkanes were supplied as vapour phase by placing 200 μl alkane on a sterile filter paper in the lid of the petri dish. Plates were incubated at 28° C. for 2 days.
Toxicity test was implemented to study the effect of ABC2 and ABC3 on the tolerance of the cells toward alkanes. The toxic effects of alkanes on S. cerevisiae with ABC2 and ABC3 were measured through alkane susceptibility test on agar plates. […] It was observed that the expression of ABC2 would lead higher tolerance toward decane than ABC3.

In series [4] the test system is S. cerevisiae BY4741. In words: Intracellular alkane accumulation (GC-FID) in cells expressing ABC2/3. The settings on record: S. cerevisiae BY4741 expressing the transporter, 48 h, control with empty plasmid. Format: cell-based, Saccharomyces cerevisiae. On the procedure: FIG. 1. Intracellular alkane accumulation by ABC2 and ABC3. S. cerevisiae BY4741 with and without ABC2/3 were cultured under exposure of 0.5% alkane or 20% undecane. After 48 h incubation, intracellular alkane levels were measured. Intracellular alkane levels were normalized to that of control carrying empty plasmid. Data shown are the mean±SD of four biological replicates.
Intracellular alkane accumulation was analysed with GC-FID after 48 h incubation with 0.5% decane or 20% undecane.
After induction for 48 h with or without addition of alkanes, S. cerevisiae cells transformed with pYES2, pYES2ABC2 and pYES2ABC3 were harvested at 6000 g for 5 min at 4° C. After washing with 50 mM Tris.Cl, cells were equally divided into two parts, one part for alkane GC analysis and the other for determination of total protein concentration. For GC analysis, cell pellets were re-suspended in freshly prepared Chloroform/Methanol (v/v, 2:1). Dodecane was added into cell suspension as an internal standard. Acid-washed glass beads were added until the suspension was covered. Cells were then lysed by mechanical agitation using FastPrep-24 (MPBio) for 6 min at 6 m/s. The crude extract was obtained by pipette. After addition of autoclaved ddH2O, the crude extract was emulsified for 10 min by inversion. After centrifuge, the crude extract was separated into two phases. The bottom phase containing alkane was transferred into a new 1.5 ml microcentrifuge tube and purified as above with HPLC grade chloroform and autoclaved ddH2O until particulate matter was no longer observable. The purified solution was transferred into a clear GC vial for GC analysis. To check the total protein concentration, Cell pellets were re-suspended into 50 mM Tris.Cl and lysed via mechanical agitation with acid-washed glass beads using FastPrep-24 for 6 min at 6 m/s. Protein concentration of obtained crude extract was determined using the Bradford protein assay (Bio-Rad). Intracellular alkane levels were normalized to internal standard and cell lysate protein content.

As for `CCCCCCCC` [octane], the “mRNA levels of ABC2” value in series [1] is listed as “significantly increased”.

Consider `CCCCCCCCCCC` [undecane], for which the “mRNA levels of ABC2” value in series [1] was “significantly increased”. Also, the “alkane concentration causing a significant decrease in viability of the control cells” value in series [2] (control cells with empty plasmid, 48 hr, 28° C.) worked out at 20%.

B1: ABC2: Y. lipolytica ABC transporter, SEQ ID NO. 4, GenBank CAG82364, heterologously expressed in S. cerevisiae (protein, listed as Yarrowia lipolytica)
chain: MEQTPPDYTGLDKNIDAEVRSIAESMYQTRREGVNDSDTDEELQRTNTIQPNLNVNPFLDTSDPQLDPLSKEFNSRKWIKTILGLKARFGNSRSISAGVSFKNLSAFGYGGGNDYQKTFTNSVMAIGPMIKKVLGGNKGSEVQILRHFDGLVRAGETCVVLGRPGSGCTTFLKSVACETYGFHLGEKSEWNYQGVPRDVMQKNARGEIVYNAEVDVHFPHLTVGDTLLFAALARTPQNRLEGVSREQHATHVRDVSMAMLGLTHTMDTKVGNDFVRGVSGGERKRVSIAESVVCGAPLQCWDNSTRGLDAANATEFIRSLRLSAEMTDASMFVSLYQASQEAYDMFDKVCVLYEGRQIYFGKTTEAKQFFLDLGFDCADRQTTGDFLTSLTNPIERIIRPGWESRVPRTPDDFEKCWLESEARQLLLQDIDEFNNEFVLGGPALDNFMGLRKDAQAKHTRVQSPYTISWPMQTRLCLWRGFLRIKGDMSTDIATVFGNFVMALVLSSMFYNMPQTTESFFSRGALLFFAILINAFASILEILSLYEQRPIVDKQNRYAMYHPAADALAAIITTFPTKTLTLVSVNLTIYFMTNLRREVGPFFIFFLFSLLCTMAMSMIFRTIGSVTKTLEQALAPASIIILALVIYTGFSLPISYMHGWARWINWLNPVAYGFEAVMVNEFRNREYECSMFVPSGGAYENVSLDYRSCAAVGAEPGLRFVNGDAFINQSYEYYNAHLWRNMGILFGFIIFFGAFYLFAVEYIQGAKSKGEVLVFRKEHIKKQRKEKNGDIESGVTMAGEKGTQESESSNTSINLQAQRGIYQWKDVCYDIKVKDGERRLLDHVDGFVKPGTLTALMGASGAGKTTLLDVLADRKSTGVVTGEMLVNGEHRDGSFQRKTGYVQQQDLHTATATVRESLEFSALLRQPSSIPESEKLAYVDEVIRILEMETYADAVVGVPGEGLNVEQRKRLTIGVELAAKPELLLFLDEPTSGLDSQTAWSIVKLLKKLAANGQAILCTIHQPSAILFQEFDRLLFLASGGRTVYYGDIGPQSSILTEYFERNGADPCPKQGNPAEWMLEVIGAAPGSTAKRDWPVVWAESPERAAKREELDEMARTVERVQTNTTERDSTGYSDSDQFAVGWWTQFKIVSKRQFQALWRTPSYLWSKVFLCAASAIFIGFSFFKAPNDMQGLQNKMFSFFMLFLIFNTVVEQIIPQFDKMRELYEARERSSKTYSWQVFMGSNMVVELIWQFFMGVIVFFCFYYPVGFQWTAEYNDSVHERGGLFFLYVLLLFLYNSTFAHMLIAGIDNKDTAAQIGTLLFTLMLLFCGVLATKEQMPGFWVFMYRVSPLTYFVGGMMATGMGRAPVTCSPHELVRFPAVPGKSCGEYMDGFISALGDSAGYLVSSSADMCEYCPMKSSDQFLDSVDISYTQRWRNWGILWAYPLFNIFAAFALYYFFRVPKKSKAQKA
B1: in series [3] (decane as vapour phase), the “cell tolerance toward decane” value is given as “considerably improved”. In addition, in series [3] (undecane as vapour phase), the “cell tolerance toward undecane” value is given as “considerably improved”. The decane tolerance increase result in series [2] (cells expressing the transporter vs. control (0.25% decane), 48 hr, 28° C., OD600) is “about 80 fold”. In series [2] (cells expressing the transporter, 20% undecane), the “survival in 20% undecane” value is listed as “can survive”. The molecule also yielded a decane concentration tolerated in series [2] (cells expressing the transporter, 48 hr, 28° C., control 0.25% decane) of 20%. Further, the “lower intracellular decane level relative to the control” value in series [4] (0.5% decane) is reported as about 5 fold. Also, in series [4] (20% undecane), the “reduction of intracellular undecane level compared to the control sample” value is given as “approximately 30 fold”.
